In patent US20240376151A1, “STAPLED PEPTIDES AND METHODS THEREOF” (FOG PHARMACEUTICALS, INC., priority 2022, published 2024):
Numbered stars: 1 amine (or outer) side, 2 acyl side, 3 side chain; on linkers, the order of the positions; unused ones are H or OH. Bridge positions count the residues as written; N and C are the ends. Ends that are not written are not given here. Phenylene(1,4-NHCOCH2)2 = O=C(C[*:1])Nc1ccc(NC(=O)C[*:2])cc1

Target: T1, CHIP (Homo sapiens, UniProt Q9UNE7)
T1 construct: N-term truncated CHIP (also known as STUB1, Uniprot ID: Q9UNE7, residues 23-303); made in house; host or cells: E. coli BL21 CodonPlus
T1 sequence (Q9UNE7 23-303): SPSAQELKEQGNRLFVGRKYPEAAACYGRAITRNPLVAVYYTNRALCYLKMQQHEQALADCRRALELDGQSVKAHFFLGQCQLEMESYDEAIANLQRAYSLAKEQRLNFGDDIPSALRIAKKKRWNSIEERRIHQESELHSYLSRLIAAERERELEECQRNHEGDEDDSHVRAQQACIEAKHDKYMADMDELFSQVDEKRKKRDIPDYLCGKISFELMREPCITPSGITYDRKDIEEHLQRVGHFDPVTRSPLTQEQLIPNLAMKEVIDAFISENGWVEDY
Experiment: Naive Library Presenter Screening (phage, NGS), CHIP
Assay type: binding
Details: for interaction data, BLANK: Blank = Media only
Experimental: To conduct phage library screening, previously described procedures were utilized in accordance with the present disclosure.
Next-generation sequencing was performed as described in accordance with the present disclosure.
Hit ID and Clustering is performed according to a described procedure in accordance with the present disclosure.

[1] = CHIP target concentration 10 nM
[2] = CHIP target concentration 30 nM
[3] = CHIP target concentration 100 nM
[4] = CHIP target concentration 300 nM
[5] = CHIP target concentration 1000 nM, first column
[6] = CHIP target concentration 1000 nM, second column
[7] = CHIP clusters (C83, C84), first column
[8] = CHIP clusters (C83, C84), second column
[9] = CHIP clusters (C83, C84), target concentration 10 nM
[10] = CHIP clusters (C83, C84), target concentration 30 nM
[11] = CHIP clusters (C83, C84), target concentration 100 nM
[12] = CHIP clusters (C83, C84), target concentration 300 nM
[13] = CHIP clusters (C83, C84), target concentration 1000 nM, first column
[14] = CHIP clusters (C83, C84), target concentration 1000 nM, second column

| Sequence | interaction data at Target Concentration 10 [1] | interaction data at Target Concentration 30 [2] | interaction data at Target Concentration 100 [3] | interaction data at Target Concentration 300 [4] | interaction data at Target Concentration 1000 [5] | interaction data at Target Concentration 1000 [6] | interaction data, BLANK [7] | interaction data, BLANK [8] | interaction data at Target Concentration 10 [9] | interaction data at Target Concentration 30 [10] | interaction data at Target Concentration 100 [11] | interaction data at Target Concentration 300 [12] | interaction data at Target Concentration 1000 [13] | interaction data at Target Concentration 1000 [14] |
| --- | --- | --- | --- | --- | --- | --- | --- | --- | --- | --- | --- | --- | --- | --- |
| ICYNAWVECE (linker 2-9 via Phenylene(1,4-NHCOCH2)2 (inferred)) | 1 | 2 | 10 | 21 | 19 | 23 |  |  |  |  |  |  |  |  |
| DPAYDVCHFAAHICWID (linker 7-14 via Phenylene(1,4-NHCOCH2)2 (inferred)) |  |  |  |  |  |  | 0 | 0 | 0 | 0 | 22 | 19 | 20 | 62 |
| ICYNARLECE (linker 2-9 via Phenylene(1,4-NHCOCH2)2 (inferred)) | 1 | 2 | 13 | 16 | 21 | 20 |  |  |  |  |  |  |  |  |
| PCYSAWITCES (linker 2-9 via Phenylene(1,4-NHCOCH2)2 (inferred)) | 0 | 134 | 286 | 457 | 563 | 538 |  |  |  |  |  |  |  |  |
| DPAETFCWDAADICMVD (linker 7-14 via Phenylene(1,4-NHCOCH2)2 (inferred)) |  |  |  |  |  |  | 0 | 0 | 0 | 0 | 1 | 17 | 7 | 32 |
| DPAINMCYRAAQICDVD (linker 7-14 via Phenylene(1,4-NHCOCH2)2 (inferred)) |  |  |  |  |  |  | 0 | 0 | 0 | 0 | 0 | 31 | 28 | 27 |
| ICYNAWLECA (linker 2-9 via Phenylene(1,4-NHCOCH2)2 (inferred)) | 0 | 1 | 5 | 7 | 11 | 9 |  |  |  |  |  |  |  |  |
| ICYSAWLECE (linker 2-9 via Phenylene(1,4-NHCOCH2)2 (inferred)) | 1 | 3 | 13 | 25 | 22 | 28 |  |  |  |  |  |  |  |  |
| DPAFWVCQYAAAMCQDV (linker 7-14 via Phenylene(1,4-NHCOCH2)2 (inferred)) |  |  |  |  |  |  | 1 | 0 | 8 | 3 | 160 | 86 | 331 | 323 |
| PCWEAWLWCSM (linker 2-9 via Phenylene(1,4-NHCOCH2)2 (inferred)) | 0 | 0 | 4 | 124 | 194 | 145 |  |  |  |  |  |  |  |  |
| DPAFDRCQWAAALCMMN (linker 7-14 via Phenylene(1,4-NHCOCH2)2 (inferred)) |  |  |  |  |  |  | 0 | 0 | 0 | 0 | 4 | 13 | 31 | 76 |
| DPAQYNCYFAANICTVD (DPAQYNCYFAANICTVD-NH2; linker 7-14 via Phenylene(1,4-NHCOCH2)2 (inferred)) |  |  |  |  |  |  | 0 | 0 | 0 | 0 | 0 | 48 | 79 | 17 |
| DPAFTRCQFAAAVCNFT (linker 7-14 via Phenylene(1,4-NHCOCH2)2 (inferred)) |  |  |  |  |  |  | 0 | 0 | 0 | 3 | 0 | 6 | 19 | 28 |
| DPAFWRCQFAAATCEHT (linker 7-14 via Phenylene(1,4-NHCOCH2)2 (inferred)) |  |  |  |  |  |  | 1 | 0 | 2 | 3 | 210 | 321 | 597 | 726 |
| DPAFWQCQFAAATCAHY (linker 7-14 via Phenylene(1,4-NHCOCH2)2 (inferred)) |  |  |  |  |  |  | 0 | 0 | 0 | 0 | 19 | 16 | 70 | 44 |
